Assays:
[1] = tested on: non-human primates (cynomolgus monkey); assay: Example 22: LNP IV in non-human primates, serum G-CSF/EPO ELISA (Tables 38, 39); assay type: in vivo
Procedure: LNP formulations, shown in Table 33 (above), were administered to non-human primates (NHP) (cynomolgus monkey) (n=2) as intravenous injection (IV). The NHP were administered a single modified mRNA IV dose of 0.5 mg/kg, 0.05 mg/kg or 0.005 mg/kg of G-CSF or EPO in a dose volume of 0.5 mL/kg. The NHPs were bled before dosing with the modified mRNA LNP formulations to determine protein expression in the serum and a baseline complete blood count. After administration with the G-CSF modified mRNA formulation the NHP were bled at 8, 24, 48 and 72 hours to determined protein expression. After administration with the EPO modified mRNA formulation the NHP were bled at 8, 24, 48, 72 hours and 7 days to determined protein expression.
Samples collected from the NHPs after they were administered with G-CSF or EPO modified mRNA formulations were analyzed by ELISA to determine protein expression. Neutrophil and reticulocyte count was also determined pre-dose, 24 hours, 3 days, 7 days, 14 days and 18 days after administration of the modified G-CSF or EPO formulation.

[2] = tested on: non-human primates (cynomolgus monkey); assay: Example 22: NHP serum chemistry ALT and AST (Tables 45, 46); assay type: in vivo
[3] = 0.005 mg/kg, 2 days, Female NHP
[4] = 0.005 mg/kg, 4 days, Female NHP
[5] = 0.005 mg/kg, 7 days, Female NHP
[6] = 0.005 mg/kg, 14 days, Female NHP
[7] = 0.005 mg/kg, Pre-dose, Female NHP
[8] = 0.005 mg/kg, Pre-dose, Male NHP
[9] = 0.05 mg/kg, 14 days, Female NHP
[10] = 0.05 mg/kg, Pre-dose, Female NHP
[11] = 0.5 mg/kg, Pre-dose, Female NHP

B1: EPO: modified mRNA encoding human erythropoietin, SEQ ID NO: 7, Cap1, fully modified with 5-methylcytosine and pseudouridine; LNP NPA-060-1 in Examples 17-22 (nucleic acid)
chain: GGGAAAUAAGAGAGAAAAGAAGAGUAAGAAGAAAUAUAAGAGCCACCAUGGGAGUGCACGAGUGUCCCGCGUGGUUGUGGUUGCUGCUGUCGCUCUUGAGCCUCCCACUGGGACUGCCUGUGCUGGGGGCACCACCCAGAUUGAUCUGCGACUCACGGGUACUUGAGAGGUACCUUCUUGAAGCCAAAGAAGCCGAAAACAUCACAACCGGAUGCGCCGAGCACUGCUCCCUCAAUGAGAACAUUACUGUACCGGAUACAAAGGUCAAUUUCUAUGCAUGGAAGAGAAUGGAAGUAGGACAGCAGGCCGUCGAAGUGUGGCAGGGGCUCGCGCUUUUGUCGGAGGCGGUGUUGCGGGGUCAGGCCCUCCUCGUCAACUCAUCACAGCCGUGGGAGCCCCUCCAACUUCAUGUCGAUAAAGCGGUGUCGGGGCUCCGCAGCUUGACGACGUUGCUUCGGGCUCUGGGCGCACAAAAGGAGGCUAUUUCGCCGCCUGACGCGGCCUCCGCGGCACCCCUCCGAACGAUCACCGCGGACACGUUUAGGAAGCUUUUUAGAGUGUACAGCAAUUUCCUCCGCGGAAAGCUGAAAUUGUAUACUGGUGAAGCGUGUAGGACAGGGGAUCGCUGAUAAGCUGCCUUCUGCGGGGCUUGCCUUCUGGCCAUGCCCUUCUUCUCUCCCUUGCACCUGUACCUCUUGGUCUUUGAAUAAAGCCUGAGUAGGAAG
modifications: Cap1, 5-methylcytosine, pseudouridine
In the case of B1, the “Female NHP Serum G-CSF / EPO Concentration” value ([1]; 0.005 mg/kg IV, 8 hours) is reported as 523 pg/mL, the “Male NHP Serum G-CSF / EPO Concentration” value ([1]; 0.005 mg/kg IV, 8 hours) is reported as 250 pg/mL and the “Female NHP Serum G-CSF / EPO Concentration” value ([1]; 0.005 mg/kg IV, 24 hours) is reported as 302 pg/mL. The “Male NHP Serum G-CSF / EPO Concentration” value ([1]; 0.005 mg/kg IV, 24 hours) was 113 pg/mL, the “Female NHP Serum G-CSF / EPO Concentration” value ([1]; 0.005 mg/kg IV, 48 hours) was 11 pg/mL and the “Male NHP Serum G-CSF / EPO Concentration” value ([1]; 0.005 mg/kg IV, 48 hours) was 29 pg/mL. For the same molecule, the “Female NHP Serum G-CSF / EPO Concentration” value ([1]; 0.005 mg/kg IV, 72 hours) was under 7.8 pg/mL, the “Male NHP Serum G-CSF / EPO Concentration” value ([1]; 0.005 mg/kg IV, 72 hours) was under 7.8 pg/mL and the “Female NHP Serum G-CSF / EPO Concentration” value ([1]; 0.005 mg/kg IV, 7 days) was under 7.8 pg/mL. The “Male NHP Serum G-CSF / EPO Concentration” value ([1]; 0.005 mg/kg IV, 7 days) was under 7.8 pg/mL, the “Female NHP Serum G-CSF / EPO Concentration” value ([1]; 0.005 mg/kg IV, Pre-bleed) was under 7.8 pg/mL and the “Male NHP Serum G-CSF / EPO Concentration” value ([1]; 0.005 mg/kg IV, Pre-bleed) was under 7.8 pg/mL. For the same molecule, the “Female NHP Serum G-CSF / EPO Concentration” value ([1]; 0.05 mg/kg IV, 8 hours) was 19,858 pg/ml, the “Male NHP Serum G-CSF / EPO Concentration” value ([1]; 0.05 mg/kg IV, 8 hours) was 7,072 pg/ml and the “Female NHP Serum G-CSF / EPO Concentration” value ([1]; 0.05 mg/kg IV, 24 hours) was 18,187 pg/ml. The “Male NHP Serum G-CSF / EPO Concentration” value ([1]; 0.05 mg/kg IV, 24 hours) was 4,913 pg/ml, the “Female NHP Serum G-CSF / EPO Concentration” value ([1]; 0.05 mg/kg IV, 48 hours) was 5,291 pg/ml and the “Male NHP Serum G-CSF / EPO Concentration” value ([1]; 0.05 mg/kg IV, 48 hours) was 498 pg/mL. The “Female NHP Serum G-CSF / EPO Concentration” value ([1]; 0.05 mg/kg IV, 72 hours) was 744 pg/mL, the “Male NHP Serum G-CSF / EPO Concentration” value ([1]; 0.05 mg/kg IV, 72 hours) was 60 pg/mL and the “Female NHP Serum G-CSF / EPO Concentration” value ([1]; 0.05 mg/kg IV, 7 days) was under 7.8 pg/mL. For the same molecule, the “Male NHP Serum G-CSF / EPO Concentration” value ([1]; 0.05 mg/kg IV, 7 days) was under 7.8 pg/mL, the “Female NHP Serum G-CSF / EPO Concentration” value ([1]; 0.05 mg/kg IV, Pre-bleed) was under 7.8 pg/mL and the “Male NHP Serum G-CSF / EPO Concentration” value ([1]; 0.05 mg/kg IV, Pre-bleed) was under 7.8 pg/mL. For the same molecule, the “Female NHP Serum G-CSF / EPO Concentration” value ([1]; 0.5 mg/kg IV, 8 hours) was 158,771 pg/ml, the “Male NHP Serum G-CSF / EPO Concentration” value ([1]; 0.5 mg/kg IV, 8 hours) was 119,086 pg/ml and the “Female NHP Serum G-CSF / EPO Concentration” value ([1]; 0.5 mg/kg IV, 24 hours) was 133,978 pg/ml. The “Male NHP Serum G-CSF / EPO Concentration” value ([1]; 0.5 mg/kg IV, 24 hours) was 85,825 pg/ml, the “Female NHP Serum G-CSF / EPO Concentration” value ([1]; 0.5 mg/kg IV, 48 hours) was 45,250 pg/ml and the “Male NHP Serum G-CSF / EPO Concentration” value ([1]; 0.5 mg/kg IV, 48 hours) was 64,793 pg/ml. For the same molecule, the “Female NHP Serum G-CSF / EPO Concentration” value ([1]; 0.5 mg/kg IV, 72 hours) was 15,097 pg/ml, the “Male NHP Serum G-CSF / EPO Concentration” value ([1]; 0.5 mg/kg IV, 72 hours) was 20,407 pg/ml and the “Female NHP Serum G-CSF / EPO Concentration” value ([1]; 0.5 mg/kg IV, 7 days) was under 7.8 pg/mL. For the same molecule, the “Male NHP Serum G-CSF / EPO Concentration” value ([1]; 0.5 mg/kg IV, 7 days) was under 7.8 pg/mL, the “Female NHP Serum G-CSF / EPO Concentration” value ([1]; 0.5 mg/kg IV, Pre-bleed) was under 7.8 pg/mL and the “Male NHP Serum G-CSF / EPO Concentration” value ([1]; 0.5 mg/kg IV, Pre-bleed) was under 7.8 pg/mL. For the same molecule, the “protein expression not detected beyond” value ([1]; NHP IV) was at most 7 days, the ALT [2, 3] was 48 U/L and the AST [2, 3] was 25 U/L. For the same molecule, the ALT ([2]; 0.005 mg/kg, 2 days, Male NHP) was 62 U/L, the AST ([2]; 0.005 mg/kg, 2 days, Male NHP) was 29 U/L and the ALT [2, 4] was 50 U/L. It also gave an AST [2, 4] of 55 U/L, an ALT ([2]; 0.005 mg/kg, 4 days, Male NHP) of 48 U/L and an AST ([2]; 0.005 mg/kg, 4 days, Male NHP) of 43 U/L. The ALT [2, 5] was 48 U/L, the AST [2, 5] was 31 U/L and the ALT ([2]; 0.005 mg/kg, 7 days, Male NHP) was 21 U/L. It also gave an AST ([2]; 0.005 mg/kg, 7 days, Male NHP) of 55 U/L, an ALT [2, 6] of 51 U/L and an AST [2, 6] of 54 U/L. It also gave an ALT ([2]; 0.005 mg/kg, 14 days, Male NHP) of 43 U/L, an AST ([2]; 0.005 mg/kg, 14 days, Male NHP) of 35 U/L and an ALT [2, 7] of 45 U/L. For the same molecule, the AST [2, 7] was 40 U/L, the ALT [2, 8] was 45 U/L and the AST [2, 8] was 39 U/L. It also gave an ALT ([2]; 0.05 mg/kg, 2 days, Female NHP) of 254 U/L, an AST ([2]; 0.05 mg/kg, 2 days, Female NHP) of 80 U/L and an ALT ([2]; 0.05 mg/kg, 2 days, Male NHP) of 95 U/L. The AST ([2]; 0.05 mg/kg, 2 days, Male NHP) was 61 U/L, the ALT ([2]; 0.05 mg/kg, 4 days, Female NHP) was 200 U/L and the AST ([2]; 0.05 mg/kg, 4 days, Female NHP) was 94 U/L. For the same molecule, the ALT ([2]; 0.05 mg/kg, 4 days, Male NHP) was 70 U/L, the AST ([2]; 0.05 mg/kg, 4 days, Male NHP) was 48 U/L and the ALT ([2]; 0.05 mg/kg, 7 days, Female NHP) was 187 U/L. The AST ([2]; 0.05 mg/kg, 7 days, Female NHP) was 78 U/L, the ALT ([2]; 0.05 mg/kg, 7 days, Male NHP) was 64 U/L and the AST ([2]; 0.05 mg/kg, 7 days, Male NHP) was 53 U/L. For the same molecule, the ALT [2, 9] was 216 U/L, the AST [2, 9] was 47 U/L and the ALT ([2]; 0.05 mg/kg, 14 days, Male NHP) was 29 U/L. It also gave an AST ([2]; 0.05 mg/kg, 14 days, Male NHP) of 32 U/L, an ALT [2, 10] of 160 U/L and an AST [2, 10] of 58 U/L. The ALT ([2]; 0.05 mg/kg, Pre-dose, Male NHP) was 56 U/L, the AST ([2]; 0.05 mg/kg, Pre-dose, Male NHP) was 74 U/L and the ALT ([2]; 0.5 mg/kg, 2 days, Female NHP) was 77 U/L. The AST ([2]; 0.5 mg/kg, 2 days, Female NHP) was 141 U/L, the ALT ([2]; 0.5 mg/kg, 2 days, Male NHP) was 98 U/L and the AST ([2]; 0.5 mg/kg, 2 days, Male NHP) was 125 U/L. It also gave an ALT ([2]; 0.5 mg/kg, 4 days, Female NHP) of 87 U/L, an AST ([2]; 0.5 mg/kg, 4 days, Female NHP) of 60 U/L and an ALT ([2]; 0.5 mg/kg, 4 days, Male NHP) of 94 U/L. For the same molecule, the AST ([2]; 0.5 mg/kg, 4 days, Male NHP) was 71 U/L, the ALT ([2]; 0.5 mg/kg, 7 days, Female NHP) was 59 U/L and the AST ([2]; 0.5 mg/kg, 7 days, Female NHP) was 47 U/L. For the same molecule, the ALT ([2]; 0.5 mg/kg, 7 days, Male NHP) was 60 U/L, the AST ([2]; 0.5 mg/kg, 7 days, Male NHP) was 56 U/L and the ALT ([2]; 0.5 mg/kg, 14 days, Female NHP) was 44 U/L. The AST ([2]; 0.5 mg/kg, 14 days, Female NHP) was 44 U/L, the ALT ([2]; 0.5 mg/kg, 14 days, Male NHP) was 88 U/L and the AST ([2]; 0.5 mg/kg, 14 days, Male NHP) was 82 U/L. For the same molecule, the ALT [2, 11] was 31 U/L, the AST [2, 11] was 20 U/L and the ALT ([2]; 0.5 mg/kg, Pre-dose, Male NHP) was 50 U/L. The AST ([2]; 0.5 mg/kg, Pre-dose, Male NHP) was 59 U/L.
